Results: article PMC6590870
Where “and” joins values, the source holds several entries; their conditions need not be identical. Equal entries are not always repeated.

Target: Strep-HP1542 (bactofilin HP1542 of H. pylori reference strain 26695, N-terminal Strep-tagged version) (Helicobacter pylori strain 26695)
Experiment: cross-linking; glutaraldehyde dilutions 10% to 0.01% added to strep-tagged protein, 10 min at 23°C; SDS-PAGE and immunoblotting

stoichiometry N: 2 and 3
Substance: Strep-HP1542 (bactofilin HP1542 of H. pylori reference strain 26695, N-terminal Strep-tagged version) (natural protein)
